Where a chain is given by its changes, count along the chain named.
T1: rat MOG (myelin-oligodendrocyte glycoprotein) (rat, UniProt Q63345 28-245)
T1 construct: mature; Not a purified protein: identified by the band size of about 25 kDa in a western blot of rat spinal cord lysate; also called antigen of M26; protein of size 25 kDa
T1 sequence (looked up): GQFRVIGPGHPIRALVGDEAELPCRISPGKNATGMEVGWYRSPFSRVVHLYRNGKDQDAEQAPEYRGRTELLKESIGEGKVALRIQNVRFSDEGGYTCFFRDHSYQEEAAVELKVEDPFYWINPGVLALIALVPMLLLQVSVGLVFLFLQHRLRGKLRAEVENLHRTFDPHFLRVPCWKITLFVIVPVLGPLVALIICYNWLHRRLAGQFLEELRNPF

B1: AB138 (antibody, human IgG1, kappa, V domains shown)
VH: QVQLVQSGAEVKKPGASVKVSCKASGYTFTSYAISWARQPPGQGLEWMGAFDPEYGSTTYAQKFQGRVTMTADTSTSTAYMELSSLRPEDTAVYYCARDVNFGNYFDYWGQGTLVTVSS
VL: ELVMTQSPATLSLSPGERATVSCRAGQSVSYYLAWYQQKPGQAPRLLIYGASTRATGIPARFSGSRSGTDFTLTISSLEPEDFAVYYCQQYSSWPPTFGQGTKLEIKR
notes: Expressed in CHOK1SV cells, purified on Protein A; also called marmoset human fusion antibody; MOG specific marmoset derived antibody variable regions with human IgG1 / kappa constant regions
B2: CDR2-substituted domain antibody SEQ ID No 26 (other)
chain: DIQMTQSPSSLSASGDRVTITCRASQSIDSYLHWYQQKPGKAPKLLIYAASNRASGVPSRFSGSGSGTDFTLTISSLQPEDFATYYCQQVVWRPFTFGQGTKVEIKR
notes: not shown: 6xHIS tag introduced by vector pBAD/gIII
B3: CDR2-substituted domain antibody SEQ ID No 25 (other)
chain: B2 chain with A49K, A50V
notes: Secretory signal peptide from the vector, expressed in E. coli periplasm; not shown: 6xHIS tag introduced by vector pBAD/gIII
B4: CDR2-substituted domain antibody SEQ ID No 29 (other)
chain: B2 chain with A49R, A50V
notes: as for B2
B5: CDR2-substituted domain antibody SEQ ID No 28 (other)
chain: B2 chain with A49Y, N52F, R53L, A54Q, S55G
notes: as for B2
B6: unsubstituted acceptor anti-TNFα domain antibody (SEQ ID No: 7) (other)
chain: B2 chain with A49S, N52E, R53L, A54Q
notes: Single variable domain (domain antibody, dAb) from Basran et al. WO 2004/081026, CDR2 SASELQS; also called acceptor domain antibody; not shown: 6xHIS tag from vector pBAD/gIII (detection was by anti-HIS antibody); its positi
B7: CDR2-substituted domain antibody SEQ ID No 31 (other)
chain: B2 chain with A49D, N52S, R53L, A54Q, S55P
notes: as for B2

These binders were tested against T1, rat MOG (myelin-oligodendrocyte …) (assay: western blot of rat spinal cord lysate, AB138 at 10 ug/mL, anti-human IgG HRP).
Protocol: The ability of AB138 to retain binding to the antigen of M26, rat MOG (myelin-oligodendrocyte glycoprotein), was investigated by Western Blot. 130 mg of rat spinal cord (IMVS, Australia) was homogenized in 1.8 ml CelLytic M Cell Lysis Reagent (SIGMA, C2978) and incubated for 30 minutes at 4° C. Further homogenization was performed by drawing the lysate through a 27 g1/2 needle several times followed by centrifugation at 4° C. and 13000 g for 30 minutes. The pellet and supernatant was diluted into SDS-PAGE sample buffer (125 mM Tris-HCl pH 6.8, 5% SDS, 0.25% bromophenol blue, 25% glycerol). Along with this 200 μl CHOK1SV cells at 1×10⁶ viable cells per ml were spun down at 13000×g at 4° C. for 1 minute and resuspended in 200 μl CelLytic M Cell Lysis Reagent (SIGMA). Following centrifugation at 4° C. and 13000×g for 30 minutes the supernatant was mixed with the appropriate amount of SDS-PAGE sample buffer. All samples, along with a sample of molecular weight markers, were run on a 4-20% Novex pre-cast gel (Invitrogen, Australia) for 2 hours at 120V. Proteins were then transferred to PVDF (BioRad, Australia) using a western blot apparatus in 1× Tris-Glycine Buffer with 20% methanol (BioRad, Cat 161+-0771) at 4° C. at 250 mA for 2 hours. […] Following washing, bound antibody was detected using the ECL Western Blotting Analysis System, (Amersham Biosciences Cat: RPN2109). […]

Binding result, binds:
B1

These binders were tested against T2, TNF-α (Peprotech Cat No: 300-01A) (UniProt P01375 77-233) (assay: ELISA, TNF-α coated at 1 µg/mL, detection with anti-HIS HRP).
T2 construct: Coated on the ELISA plate at 1 µg/mL
T2 sequence (P01375 77-233 limits assumed): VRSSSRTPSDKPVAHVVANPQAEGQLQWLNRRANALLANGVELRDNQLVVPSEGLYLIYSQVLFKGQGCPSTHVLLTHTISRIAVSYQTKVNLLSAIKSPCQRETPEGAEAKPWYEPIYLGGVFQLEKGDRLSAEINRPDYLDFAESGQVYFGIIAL
Protocol: TNF-α (Peprotech Cat No: 300-01A) was diluted to 1 μg/mL in carbonate coating buffer ([…] pH 9.6). 100 μL of this solution was added to a well of a 96 well plate and incubated at 4° C. overnight in a humidified container. The plate was then washed three times with wash buffer (0.01M PBS pH 7.2, 0.05% Tween-20) and then three times with 0.01M PBS pH 7.2. The wells were then blocked by adding 200 μL blocking buffer (1% w/v BSA in 0.01M PBS pH 7.2) to each well and incubating the plate at 25° C., in a humidified container, for 1 hour. Desalted domain antibody protein sample was diluted in antibody diluent (1% w/v BSA, 0.05% Tween-20 in 0.01M PBS pH 7.2) and added to the wells contain TNF-α and allowed to incubate for 1 hour at 25° C. The plate was then washed as previously described. 100 μL of Anti-HIS antibody HRP conjugate (Sigma-Aldrich, Australia Cat No: A7058) at 1:2000 in antibody diluent was used to detect bound domain antibody. Wells with antibody diluent only were used to assess background absorbance. After incubation at 25° C., in a humidified container, for 1 hour the plate washed again as previously described. 100 μL TMB substrate solution (Zymed, Cat No: 00-2023) was added to each well and the colour allowed to develop for 4 min. 100 μL of 1M HCl was added to terminate the colour development reaction and absorbance was determined at 450 nm (ref. 620 nm)

Binding result, binds:
B2
B3
B4
B5
B6
B7
